The values below come from patent US20150344540A1, “NOVEL GLP-1 RECEPTOR AGONISTS WITH CHOLESTEROL EFFLUX ACTIVITY” (NOVO NORDISK A/S, priority 2012, published 2015).

Where no end group is shown, it is not given here. [ ]: non-standard residue; d: D form. Aib = CC(C)(N)C(=O)O

Sequences and labels used below:
B1: [Aib8,Trp23,Val25,Glu34,Lys35,Aib36,Lys37]-GLP-1-(7-37)-peptidyl-Glu-Phe-Leu amide (peptide)
peptide: H[Aib]EGTFTSDVSSYLEGWAVKEFIAWLVEK[Aib]KEFL-NH2
modifications: N-terminus assumed
SMILES: CC[C@H](C)[C@H](NC(=O)[C@H](Cc1ccccc1)NC(=O)[C@H](CCC(=O)O)NC(=O)[C@H](CCCCN)NC(=O)[C@@H](NC(=O)[C@H](C)NC(=O)[C@H](Cc1c[nH]c2ccccc12)NC(=O)CNC(=O)[C@H](CCC(=O)O)NC(=O)[C@H](CC(C)C)NC(=O)[C@H](Cc1ccc(O)cc1)NC(=O)[C@H](CO)NC(=O)[C@H](CO)NC(=O)[C@@H](NC(=O)[C@H](CC(=O)O)NC(=O)[C@H](CO)NC(=O)[C@@H](NC(=O)[C@H](Cc1ccccc1)NC(=O)[C@@H](NC(=O)CNC(=O)[C@H](CCC(=O)O)NC(=O)C(C)(C)NC(=O)[C@@H](N)Cc1c[nH]cn1)[C@@H](C)O)[C@@H](C)O)C(C)C)C(C)C)C(=O)N[C@@H](C)C(=O)N[C@@H](Cc1c[nH]c2ccccc12)C(=O)N[C@@H](CC(C)C)C(=O)N[C@H](C(=O)N[C@@H](CCC(=O)O)C(=O)N[C@@H](CCCCN)C(=O)NC(C)(C)C(=O)N[C@@H](CCCCN)C(=O)N[C@@H](CCC(=O)O)C(=O)N[C@@H](Cc1ccccc1)C(=O)N[C@@H](CC(C)C)C(N)=O)C(C)C
B2: [Aib8,Asp23,Val25,Asp27,Glu34,Lys35,Aib36,Lys37]-GLP-1-(7-37)-peptidyl-Glu-Phe-Leu amide (peptide)
peptide: H[Aib]EGTFTSDVSSYLEGDAVKDFIAWLVEK[Aib]KEFL-NH2
modifications: N-terminus assumed
SMILES: CC[C@H](C)[C@H](NC(=O)[C@H](Cc1ccccc1)NC(=O)[C@H](CC(=O)O)NC(=O)[C@H](CCCCN)NC(=O)[C@@H](NC(=O)[C@H](C)NC(=O)[C@H](CC(=O)O)NC(=O)CNC(=O)[C@H](CCC(=O)O)NC(=O)[C@H](CC(C)C)NC(=O)[C@H](Cc1ccc(O)cc1)NC(=O)[C@H](CO)NC(=O)[C@H](CO)NC(=O)[C@@H](NC(=O)[C@H](CC(=O)O)NC(=O)[C@H](CO)NC(=O)[C@@H](NC(=O)[C@H](Cc1ccccc1)NC(=O)[C@@H](NC(=O)CNC(=O)[C@H](CCC(=O)O)NC(=O)C(C)(C)NC(=O)[C@@H](N)Cc1c[nH]cn1)[C@@H](C)O)[C@@H](C)O)C(C)C)C(C)C)C(=O)N[C@@H](C)C(=O)N[C@@H](Cc1c[nH]c2ccccc12)C(=O)N[C@@H](CC(C)C)C(=O)N[C@H](C(=O)N[C@@H](CCC(=O)O)C(=O)N[C@@H](CCCCN)C(=O)NC(C)(C)C(=O)N[C@@H](CCCCN)C(=O)N[C@@H](CCC(=O)O)C(=O)N[C@@H](Cc1ccccc1)C(=O)N[C@@H](CC(C)C)C(N)=O)C(C)C
B3: [His14,Tyr20,Glu23,Val25,Glu34,Lys35,Aib36,Lys37]-GLP-1-(7-37)-peptidyl-Glu-Phe-Leu amide (peptide)
peptide: HAEGTFTHDVSSYYEGEAVKEFIAWLVEK[Aib]KEFL-NH2
modifications: N-terminus assumed
SMILES: CC[C@H](C)[C@H](NC(=O)[C@H](Cc1ccccc1)NC(=O)[C@H](CCC(=O)O)NC(=O)[C@H](CCCCN)NC(=O)[C@@H](NC(=O)[C@H](C)NC(=O)[C@H](CCC(=O)O)NC(=O)CNC(=O)[C@H](CCC(=O)O)NC(=O)[C@H](Cc1ccc(O)cc1)NC(=O)[C@H](Cc1ccc(O)cc1)NC(=O)[C@H](CO)NC(=O)[C@H](CO)NC(=O)[C@@H](NC(=O)[C@H](CC(=O)O)NC(=O)[C@H](Cc1c[nH]cn1)NC(=O)[C@@H](NC(=O)[C@H](Cc1ccccc1)NC(=O)[C@@H](NC(=O)CNC(=O)[C@H](CCC(=O)O)NC(=O)[C@H](C)NC(=O)[C@@H](N)Cc1c[nH]cn1)[C@@H](C)O)[C@@H](C)O)C(C)C)C(C)C)C(=O)N[C@@H](C)C(=O)N[C@@H](Cc1c[nH]c2ccccc12)C(=O)N[C@@H](CC(C)C)C(=O)N[C@H](C(=O)N[C@@H](CCC(=O)O)C(=O)N[C@@H](CCCCN)C(=O)NC(C)(C)C(=O)N[C@@H](CCCCN)C(=O)N[C@@H](CCC(=O)O)C(=O)N[C@@H](Cc1ccccc1)C(=O)N[C@@H](CC(C)C)C(N)=O)C(C)C
B4: [Aib8,Glu23,Val25,Glu34,Aib36,Lys37]-GLP-1-(7-37)-peptidyl-Glu-Phe-Leu amide (peptide)
peptide: H[Aib]EGTFTSDVSSYLEGEAVKEFIAWLVEG[Aib]KEFL-NH2
modifications: N-terminus assumed
SMILES: CC[C@H](C)[C@H](NC(=O)[C@H](Cc1ccccc1)NC(=O)[C@H](CCC(=O)O)NC(=O)[C@H](CCCCN)NC(=O)[C@@H](NC(=O)[C@H](C)NC(=O)[C@H](CCC(=O)O)NC(=O)CNC(=O)[C@H](CCC(=O)O)NC(=O)[C@H](CC(C)C)NC(=O)[C@H](Cc1ccc(O)cc1)NC(=O)[C@H](CO)NC(=O)[C@H](CO)NC(=O)[C@@H](NC(=O)[C@H](CC(=O)O)NC(=O)[C@H](CO)NC(=O)[C@@H](NC(=O)[C@H](Cc1ccccc1)NC(=O)[C@@H](NC(=O)CNC(=O)[C@H](CCC(=O)O)NC(=O)C(C)(C)NC(=O)[C@@H](N)Cc1c[nH]cn1)[C@@H](C)O)[C@@H](C)O)C(C)C)C(C)C)C(=O)N[C@@H](C)C(=O)N[C@@H](Cc1c[nH]c2ccccc12)C(=O)N[C@@H](CC(C)C)C(=O)N[C@H](C(=O)N[C@@H](CCC(=O)O)C(=O)NCC(=O)NC(C)(C)C(=O)N[C@@H](CCCCN)C(=O)N[C@@H](CCC(=O)O)C(=O)N[C@@H](Cc1ccccc1)C(=O)N[C@@H](CC(C)C)C(N)=O)C(C)C
B5: [Aib8,Glu23,Val25,Leu27,Glu34,Lys35,Aib36,Lys37]-GLP-1-(7-37)-peptidyl-Glu-Phe-Leu amide (peptide)
peptide: H[Aib]EGTFTSDVSSYLEGEAVKLFIAWLVEK[Aib]KEFL-NH2
modifications: N-terminus assumed
SMILES: CC[C@H](C)[C@H](NC(=O)[C@H](Cc1ccccc1)NC(=O)[C@H](CC(C)C)NC(=O)[C@H](CCCCN)NC(=O)[C@@H](NC(=O)[C@H](C)NC(=O)[C@H](CCC(=O)O)NC(=O)CNC(=O)[C@H](CCC(=O)O)NC(=O)[C@H](CC(C)C)NC(=O)[C@H](Cc1ccc(O)cc1)NC(=O)[C@H](CO)NC(=O)[C@H](CO)NC(=O)[C@@H](NC(=O)[C@H](CC(=O)O)NC(=O)[C@H](CO)NC(=O)[C@@H](NC(=O)[C@H](Cc1ccccc1)NC(=O)[C@@H](NC(=O)CNC(=O)[C@H](CCC(=O)O)NC(=O)C(C)(C)NC(=O)[C@@H](N)Cc1c[nH]cn1)[C@@H](C)O)[C@@H](C)O)C(C)C)C(C)C)C(=O)N[C@@H](C)C(=O)N[C@@H](Cc1c[nH]c2ccccc12)C(=O)N[C@@H](CC(C)C)C(=O)N[C@H](C(=O)N[C@@H](CCC(=O)O)C(=O)N[C@@H](CCCCN)C(=O)NC(C)(C)C(=O)N[C@@H](CCCCN)C(=O)N[C@@H](CCC(=O)O)C(=O)N[C@@H](Cc1ccccc1)C(=O)N[C@@H](CC(C)C)C(N)=O)C(C)C
B6: [Aib8,Glu23,Val25,Glu34,Lys35,Leu36,Lys37]-GLP-1-(7-37)-peptidyl-Glu-Leu-Val amide (peptide)
peptide: H[Aib]EGTFTSDVSSYLEGEAVKEFIAWLVEKLKELV-NH2
modifications: N-terminus assumed
SMILES: CC[C@H](C)[C@H](NC(=O)[C@H](Cc1ccccc1)NC(=O)[C@H](CCC(=O)O)NC(=O)[C@H](CCCCN)NC(=O)[C@@H](NC(=O)[C@H](C)NC(=O)[C@H](CCC(=O)O)NC(=O)CNC(=O)[C@H](CCC(=O)O)NC(=O)[C@H](CC(C)C)NC(=O)[C@H](Cc1ccc(O)cc1)NC(=O)[C@H](CO)NC(=O)[C@H](CO)NC(=O)[C@@H](NC(=O)[C@H](CC(=O)O)NC(=O)[C@H](CO)NC(=O)[C@@H](NC(=O)[C@H](Cc1ccccc1)NC(=O)[C@@H](NC(=O)CNC(=O)[C@H](CCC(=O)O)NC(=O)C(C)(C)NC(=O)[C@@H](N)Cc1c[nH]cn1)[C@@H](C)O)[C@@H](C)O)C(C)C)C(C)C)C(=O)N[C@@H](C)C(=O)N[C@@H](Cc1c[nH]c2ccccc12)C(=O)N[C@@H](CC(C)C)C(=O)N[C@H](C(=O)N[C@@H](CCC(=O)O)C(=O)N[C@@H](CCCCN)C(=O)N[C@@H](CC(C)C)C(=O)N[C@@H](CCCCN)C(=O)N[C@@H](CCC(=O)O)C(=O)N[C@@H](CC(C)C)C(=O)N[C@H](C(N)=O)C(C)C)C(C)C
B7: [Aib8,Glu23,Val25,His31,Glu34,Lys35,Aib36,Lys37]-GLP-1-(7-37)-peptidyl-Glu-Phe-Leu amide (peptide)
peptide: H[Aib]EGTFTSDVSSYLEGEAVKEFIAHLVEK[Aib]KEFL-NH2
modifications: N-terminus assumed
SMILES: CC[C@H](C)[C@H](NC(=O)[C@H](Cc1ccccc1)NC(=O)[C@H](CCC(=O)O)NC(=O)[C@H](CCCCN)NC(=O)[C@@H](NC(=O)[C@H](C)NC(=O)[C@H](CCC(=O)O)NC(=O)CNC(=O)[C@H](CCC(=O)O)NC(=O)[C@H](CC(C)C)NC(=O)[C@H](Cc1ccc(O)cc1)NC(=O)[C@H](CO)NC(=O)[C@H](CO)NC(=O)[C@@H](NC(=O)[C@H](CC(=O)O)NC(=O)[C@H](CO)NC(=O)[C@@H](NC(=O)[C@H](Cc1ccccc1)NC(=O)[C@@H](NC(=O)CNC(=O)[C@H](CCC(=O)O)NC(=O)C(C)(C)NC(=O)[C@@H](N)Cc1c[nH]cn1)[C@@H](C)O)[C@@H](C)O)C(C)C)C(C)C)C(=O)N[C@@H](C)C(=O)N[C@@H](Cc1c[nH]cn1)C(=O)N[C@@H](CC(C)C)C(=O)N[C@H](C(=O)N[C@@H](CCC(=O)O)C(=O)N[C@@H](CCCCN)C(=O)NC(C)(C)C(=O)N[C@@H](CCCCN)C(=O)N[C@@H](CCC(=O)O)C(=O)N[C@@H](Cc1ccccc1)C(=O)N[C@@H](CC(C)C)C(N)=O)C(C)C
B8: [Asn14,Met16,Thr17,Asn18,Glu23,Val25,Glu34,Lys35,Gly36,Lys37]-GLP-1-(7-37)-peptidyl-Glu-Phe-Leu amide (peptide)
peptide: HAEGTFTNDMTNYLEGEAVKEFIAWLVEKGKEFL-NH2

The test deals with human GLP-1 receptor (human, UniProt P43220). In words: cell-based or functional assay.
For the molecule B1, the “CRE luciferase EC50, 0% HSA” value was determined as 763 pM and the “CRE luciferase EC50, 1% HSA” value was determined as 296 pM.

Take B2: the “CRE luciferase EC50, 0% HSA” value was found to be 4880 pM and the “CRE luciferase EC50, 1% HSA” value was 776 pM.

As to B3, the “CRE luciferase EC50, 0% HSA” value is 338 pM and the “CRE luciferase EC50, 1% HSA” value stood at 101 pM.

As to B4, the “CRE luciferase EC50, 0% HSA” value was 34 pM and the “CRE luciferase EC50, 1% HSA” value is 13 pM.

Turning to B5, the “CRE luciferase EC50, 0% HSA” value amounted to 269 pM and the “CRE luciferase EC50, 1% HSA” value was found to be 104 pM.

In the case of B6, the “CRE luciferase EC50, 0% HSA” value was found to be 155 pM and the “CRE luciferase EC50, 1% HSA” value is 82 pM.

With B7, the “CRE luciferase EC50, 0% HSA” value was found to be 66 pM and the “CRE luciferase EC50, 1% HSA” value stood at 20 pM.

Regarding B8, the “CRE luciferase EC50, 0% HSA” value turned out to be 79 pM and the “CRE luciferase EC50, 1% HSA” value was determined as 28 pM.
